# Laboratory results published in publication PMC9482650, “Quantitative fragmentomics allow affinity mapping of interactomes” (Nature Communications, 2022).
# What was measured:
# Assay in all cases: holdup assay
# Parameters in all cases: key: below the threshold = too weak to quantify, mostly under pKd 3.1 to 4
# [1] = target: T1, APBA2_2, Q99767
# T1 sequence (Q99767 654-744, limits assumed, looked up): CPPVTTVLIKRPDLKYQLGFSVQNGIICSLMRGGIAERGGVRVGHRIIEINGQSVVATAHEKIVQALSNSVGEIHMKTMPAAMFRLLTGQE
# [2] = target: T2, DFNB31_2, Q9P202
# T2 sequence (Q9P202 274-371, limits assumed, looked up): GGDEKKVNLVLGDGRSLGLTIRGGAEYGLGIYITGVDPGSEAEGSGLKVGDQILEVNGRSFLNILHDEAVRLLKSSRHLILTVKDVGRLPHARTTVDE
# [3] = target: DLG1_1, Q12959
# [4] = target: DLG2_3, Q15700
# [5] = target: T3, DLG3_1, Q92796
# T3 sequence (Q92796 125-227, limits assumed, looked up): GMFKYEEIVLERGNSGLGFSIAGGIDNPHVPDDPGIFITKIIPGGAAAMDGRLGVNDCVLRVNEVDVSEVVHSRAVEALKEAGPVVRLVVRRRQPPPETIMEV
# [6] = target: T4, DVL3, Q92997
# T4 sequence (Q92997 244-331, limits assumed, looked up): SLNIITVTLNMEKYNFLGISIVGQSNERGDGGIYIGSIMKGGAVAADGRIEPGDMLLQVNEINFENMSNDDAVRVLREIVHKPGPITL
# [7] = target: T5, FRMPD1, Q5SYB0
# T5 sequence (Q5SYB0 52-145, limits assumed, looked up): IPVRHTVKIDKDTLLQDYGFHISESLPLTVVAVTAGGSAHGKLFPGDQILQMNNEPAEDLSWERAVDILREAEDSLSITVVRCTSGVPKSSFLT
# [8] = target: GORASP1, Q9BQQ3
# GORASP1, Q9BQQ3, sequence (Q9BQQ3 1-208): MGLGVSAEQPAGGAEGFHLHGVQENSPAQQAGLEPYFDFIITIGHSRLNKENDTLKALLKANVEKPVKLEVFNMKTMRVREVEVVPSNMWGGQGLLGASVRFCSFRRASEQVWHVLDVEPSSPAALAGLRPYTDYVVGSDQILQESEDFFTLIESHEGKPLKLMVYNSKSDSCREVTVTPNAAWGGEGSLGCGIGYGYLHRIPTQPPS
# [9] = target: GRIP2_4, Q9C0E4
# GRIP2_4, Q9C0E4, sequence (Q9C0E4 446-548): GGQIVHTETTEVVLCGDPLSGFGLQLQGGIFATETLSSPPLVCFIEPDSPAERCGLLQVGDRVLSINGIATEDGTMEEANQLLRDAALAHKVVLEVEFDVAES
# [10] = target: GRIP2_5, Q9C0E4
# GRIP2_5, Q9C0E4, sequence (Q9C0E4 544-642): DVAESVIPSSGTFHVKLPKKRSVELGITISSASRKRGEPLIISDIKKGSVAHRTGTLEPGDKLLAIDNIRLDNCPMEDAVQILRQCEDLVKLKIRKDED
# [11] = target: GRIP2_6, Q9C0E4
# GRIP2_6, Q9C0E4, sequence (Q9C0E4 648-740): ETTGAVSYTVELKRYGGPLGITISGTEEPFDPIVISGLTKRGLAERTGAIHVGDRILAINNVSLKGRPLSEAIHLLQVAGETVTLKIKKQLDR
# [12] = target: GRIP2_7, Q9C0E4
# GRIP2_7, Q9C0E4, sequence (Q9C0E4 934-1023): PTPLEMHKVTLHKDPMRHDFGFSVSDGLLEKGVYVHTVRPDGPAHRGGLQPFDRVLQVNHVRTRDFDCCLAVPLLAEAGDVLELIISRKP
# [13] = target: HTRA2, O43464
# HTRA2, O43464, sequence (O43464 355-458): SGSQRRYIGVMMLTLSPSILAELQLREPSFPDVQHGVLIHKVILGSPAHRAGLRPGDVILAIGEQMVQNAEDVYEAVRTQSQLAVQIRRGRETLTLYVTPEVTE
# [14] = target: Inadl_10, Q8NI35
# Inadl_10, Q8NI35, sequence (Q8NI35 1673-1763): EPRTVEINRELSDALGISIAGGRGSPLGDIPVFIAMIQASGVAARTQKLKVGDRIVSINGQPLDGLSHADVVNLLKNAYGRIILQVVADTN
# [15] = target: LDB3, O75112
# LDB3, O75112, sequence (O75112 1-94): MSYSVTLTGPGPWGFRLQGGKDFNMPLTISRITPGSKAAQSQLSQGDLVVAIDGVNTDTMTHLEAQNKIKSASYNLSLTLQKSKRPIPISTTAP
# [16] = target: T6, LIN7C, Q9NUP9
# T6 sequence (Q9NUP9 88-185, limits assumed, looked up): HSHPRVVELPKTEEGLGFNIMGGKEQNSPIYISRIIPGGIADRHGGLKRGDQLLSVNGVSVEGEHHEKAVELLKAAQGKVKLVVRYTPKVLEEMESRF
# [17] = target: T7, LNX2_2, Q8N448
# T7 sequence (Q8N448 334-432, limits assumed, looked up): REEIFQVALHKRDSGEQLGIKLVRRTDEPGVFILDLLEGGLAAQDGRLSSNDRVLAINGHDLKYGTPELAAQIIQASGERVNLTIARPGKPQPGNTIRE
# [18] = target: MAGI1_2, Q96QZ7
# MAGI1_2, Q96QZ7, sequence (Q96QZ7 456-580): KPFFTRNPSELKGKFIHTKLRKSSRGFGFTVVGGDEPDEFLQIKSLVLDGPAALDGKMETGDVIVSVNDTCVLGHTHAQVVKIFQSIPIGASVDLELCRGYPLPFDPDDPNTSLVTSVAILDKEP
# [19] = target: T8, MPDZ_10, O75970
# T8 sequence (O75970 1624-1722, limits assumed, looked up): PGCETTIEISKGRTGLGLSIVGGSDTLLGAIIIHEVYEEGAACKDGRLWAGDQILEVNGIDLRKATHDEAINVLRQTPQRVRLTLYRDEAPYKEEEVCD
# [20] = target: T9, MPP2, Q14168
# T9 sequence (Q14168 180-250, limits assumed, looked up): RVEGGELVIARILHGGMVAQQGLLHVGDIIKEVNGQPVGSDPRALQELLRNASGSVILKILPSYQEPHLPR
# [21] = target: NHERF4_2, Q86UT5
# NHERF4_2, Q86UT5, sequence (Q86UT5 220-308): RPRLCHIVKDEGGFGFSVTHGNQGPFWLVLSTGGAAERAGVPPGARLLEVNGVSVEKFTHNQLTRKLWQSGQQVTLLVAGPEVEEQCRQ
# [22] = target: NOS1, P29475
# NOS1, P29475, sequence (P29475 9-101): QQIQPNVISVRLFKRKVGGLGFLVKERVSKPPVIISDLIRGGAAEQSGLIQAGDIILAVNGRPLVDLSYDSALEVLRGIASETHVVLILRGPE
# [23] = target: PARD3_3, Q8TEW0
# PARD3_3, Q8TEW0, sequence (Q8TEW0 582-685): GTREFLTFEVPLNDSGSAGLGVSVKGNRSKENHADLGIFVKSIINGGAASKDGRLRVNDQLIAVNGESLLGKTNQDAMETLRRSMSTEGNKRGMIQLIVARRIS
# [24] = target: SCRIB_3, Q14160
# SCRIB_3, Q14160, sequence (Q14160 999-1103): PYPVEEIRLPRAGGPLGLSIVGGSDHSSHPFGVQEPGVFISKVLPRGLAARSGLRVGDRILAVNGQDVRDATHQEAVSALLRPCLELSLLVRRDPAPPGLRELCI
# [25] = target: T10, SIPA1L2, Q9P2F8
# T10 sequence (Q9P2F8 945-1036, limits assumed, looked up): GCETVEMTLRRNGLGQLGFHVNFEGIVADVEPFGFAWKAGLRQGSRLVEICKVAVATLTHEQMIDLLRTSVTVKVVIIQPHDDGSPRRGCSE
# [26] = target: T11, TX1BP3, O14907
# T11 sequence (O14907 10-122, limits assumed, looked up): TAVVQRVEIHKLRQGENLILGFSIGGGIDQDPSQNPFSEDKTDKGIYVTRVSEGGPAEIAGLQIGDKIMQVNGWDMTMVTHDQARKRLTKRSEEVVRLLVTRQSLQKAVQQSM
# [27] = plain residues with an end cap or a label only (N-terminal biotin on a linker: gsgsgs; C-terminal amide)
# [28] = plain residues with an end cap or a label only (N-terminal biotin on a linker: ahx)
# [29] = plain residues with an end cap or a label only (N-terminal biotin on a linker: ttds)
binder,measurement,setting,value
"YGIVQETTFDLGGDIH [MLLT4_int, P55196]",pKd,[1]; [27],below the threshold
same,pKd,[2]; [27],below the threshold
same,pKd,[3]; [27],below the threshold
same,pKd,[4]; [27],3.77
same,pKd,[5]; [27],below the threshold
same,pKd,[6]; [27],below the threshold
same,pKd,[7]; [27],below the threshold
same,pKd,[8]; [27],below the threshold
same,pKd,[9]; [27],below the threshold
same,pKd,[10]; [27],below the threshold
same,pKd,[11]; [27],below the threshold
same,pKd,[12]; [27],below the threshold
same,pKd,[13]; [27],below the threshold
same,pKd,[14]; [27],below the threshold
same,pKd,[15]; [27],below the threshold
same,pKd,[16]; [27],3.85
same,pKd,[17]; [27],below the threshold
same,pKd,[18]; [27],below the threshold
same,pKd,[19]; [27],below the threshold
same,pKd,[20]; [27],below the threshold
same,pKd,[21]; [27],below the threshold
same,pKd,[22]; [27],below the threshold
same,pKd,[23]; [27],below the threshold
same,pKd,[24]; [27],4.61
same,pKd,[25]; [27],below the threshold
same,pKd,[26]; [27],3.83
"RAVEEEESRF [PSCDBP, O60759]",pKd,[1]; [28],below the threshold
same,pKd,[2]; [28],below the threshold
same,pKd,[3]; [28],below the threshold
same,pKd,[4]; [28],below the threshold
same,pKd,[5]; [28],below the threshold
same,pKd,[6]; [28],below the threshold
same,pKd,[7]; [28],below the threshold
same,pKd,[8]; [28],below the threshold
same,pKd,[9]; [28],below the threshold
same,pKd,[10]; [28],below the threshold
same,pKd,[11]; [28],below the threshold
same,pKd,[12]; [28],below the threshold
same,pKd,[13]; [28],below the threshold
same,pKd,[14]; [28],below the threshold
same,pKd,[15]; [28],below the threshold
same,pKd,[16]; [28],below the threshold
same,pKd,[17]; [28],below the threshold
same,pKd,[18]; [28],below the threshold
same,pKd,[19]; [28],below the threshold
same,pKd,[20]; [28],below the threshold
same,pKd,[21]; [28],below the threshold
same,pKd,[22]; [28],3.62
same,pKd,[23]; [28],4.09
same,pKd,[24]; [28],below the threshold
same,pKd,[25]; [28],below the threshold
same,pKd,[26]; [28],below the threshold
"RPLPRKVSQL [DOCK4, Q8N1I0]",pKd,[1]; [29],below the threshold
same,pKd,[2]; [29],below the threshold
same,pKd,[3]; [29],below the threshold
same,pKd,[4]; [29],4.17
same,pKd,[5]; [29],below the threshold
same,pKd,[6]; [29],below the threshold
same,pKd,[7]; [29],below the threshold
same,pKd,[8]; [29],3.55
same,pKd,[9]; [29],below the threshold
same,pKd,[10]; [29],below the threshold
same,pKd,[11]; [29],below the threshold
same,pKd,[12]; [29],below the threshold
same,pKd,[13]; [29],below the threshold
same,pKd,[14]; [29],below the threshold
same,pKd,[15]; [29],below the threshold
same,pKd,[16]; [29],below the threshold
same,pKd,[17]; [29],below the threshold
same,pKd,[18]; [29],4.51
same,pKd,[19]; [29],below the threshold
same,pKd,[20]; [29],below the threshold
same,pKd,[21]; [29],below the threshold
same,pKd,[22]; [29],below the threshold
same,pKd,[23]; [29],below the threshold
same,pKd,[24]; [29],4.72
same,pKd,[25]; [29],below the threshold
same,pKd,[26]; [29],4.41
"FHPLGADSQV [SLC2A1, P11166]",pKd,[1]; [29],below the threshold
same,pKd,[2]; [29],below the threshold
same,pKd,[3]; [29],below the threshold
same,pKd,[4]; [29],below the threshold
same,pKd,[5]; [29],below the threshold
same,pKd,[6]; [29],below the threshold
same,pKd,[7]; [29],below the threshold
same,pKd,[8]; [29],below the threshold
same,pKd,[9]; [29],below the threshold
same,pKd,[10]; [29],below the threshold
same,pKd,[11]; [29],below the threshold
same,pKd,[12]; [29],below the threshold
same,pKd,[13]; [29],below the threshold
same,pKd,[14]; [29],below the threshold
same,pKd,[15]; [29],below the threshold
same,pKd,[16]; [29],below the threshold
same,pKd,[17]; [29],below the threshold
same,pKd,[18]; [29],below the threshold
same,pKd,[19]; [29],below the threshold
same,pKd,[20]; [29],below the threshold
same,pKd,[21]; [29],below the threshold
same,pKd,[22]; [29],3.49
same,pKd,[23]; [29],below the threshold
same,pKd,[24]; [29],3.58
same,pKd,[25]; [29],below the threshold
same,pKd,[26]; [29],3.77
"VDFPPKESSL [ACVR2A, P27037]",pKd,[1]; [29],below the threshold
same,pKd,[2]; [29],3.46
same,pKd,[3]; [29],3.71
same,pKd,[4]; [29],3.75
same,pKd,[5]; [29],below the threshold
same,pKd,[6]; [29],below the threshold
same,pKd,[7]; [29],below the threshold
same,pKd,[8]; [29],below the threshold
same,pKd,[9]; [29],below the threshold
same,pKd,[10]; [29],below the threshold
same,pKd,[11]; [29],below the threshold
same,pKd,[12]; [29],below the threshold
same,pKd,[13]; [29],below the threshold
same,pKd,[14]; [29],below the threshold
same,pKd,[15]; [29],below the threshold
same,pKd,[16]; [29],3.73
same,pKd,[17]; [29],below the threshold
same,pKd,[18]; [29],below the threshold
same,pKd,[19]; [29],below the threshold
same,pKd,[20]; [29],below the threshold
same,pKd,[21]; [29],below the threshold
same,pKd,[22]; [29],below the threshold
same,pKd,[23]; [29],below the threshold
same,pKd,[24]; [29],4.88
same,pKd,[25]; [29],below the threshold
same,pKd,[26]; [29],4.13
